Experimental findings from patent publication US20240076398A1 (VISTERRA, published 2024) are described below.

Assay [1] has as its target T1, human C5aR1 (complement component 5a receptor 1) (human, UniProt P21730 1-350, sulfated tyrosines at positions 11 and 14).
T1 construct: on Expi293 cells, C5aR1-U937 cells or human neutrophils in flow cytometry; also called CD88; C5a anaphylatoxin chemotactic receptor 1
T1 chain: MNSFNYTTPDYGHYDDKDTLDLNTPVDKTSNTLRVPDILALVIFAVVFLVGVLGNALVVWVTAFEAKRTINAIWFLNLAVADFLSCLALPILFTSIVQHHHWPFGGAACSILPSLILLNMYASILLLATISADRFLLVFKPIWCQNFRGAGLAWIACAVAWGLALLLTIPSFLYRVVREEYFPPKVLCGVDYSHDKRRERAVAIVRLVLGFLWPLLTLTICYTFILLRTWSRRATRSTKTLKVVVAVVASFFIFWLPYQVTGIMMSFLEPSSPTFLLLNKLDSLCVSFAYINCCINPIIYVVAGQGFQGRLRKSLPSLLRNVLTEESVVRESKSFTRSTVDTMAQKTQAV
Description: flow cytometry on human neutrophils, titration 10^-7.5 to 10^-12 M. The procedure:
Exemplary anti-C5aR1 antibodies generated as described in Example 1 were tested for binding to human neutrophils. Briefly, cryopreserved human neutrophils were obtained from Asarte Biologics.

The target in assay [2] is T2, biotinylated cyclic ECL2 peptide of C5aR1 (human, also: biotinylated, position not given here, cyclic, way of cyclisation not given here).
T2 peptide: RVVREEYFPPKVLC
Nature of the assay: BLI, peptide on streptavidin sensor. The source says:
The epitope mapping was undertaken, using biolayer interferometry, on a series of exemplary anti-C5aR1 antibodies generated as described in Example 1. Briefly, for each antibody, biotinylated peptides representing ECL2, the N-terminus with tyrosine sulfation, and the N-terminus without tyrosine sulfation, were immobilized in a streptavidin biosensor. Subsequently, the biosensor was exposed to […] of antibody to detect antibody binding to the immobilized peptide. The results of the epitope mapping study are shown in Table 4 (“+” indicates binding to the listed peptide; “−” indicates lack of binding to the listed peptide).

No end group written: not given here.

B1: antibody 332 (antibody, V domains shown)
VH: QVQLQQSDAELVKPGASVKISCKASGYTFTDHSIHWVKQRPEQGLEWIGYISPGNGDIKYDEKFKGKATLTADTSSSTAYMQLNSLTSEDSAVYFCKGPLLLRWRYFYPVDYWGQGTTVTVSS
VL: DIVMTQSQKFMSSAVGDRVTITCKASQNVGAAVAWYQQKPGQSPKLLLYSASIRYTGVPDRFTGSGSGTDFTLTISNIQSEDLAHFFCQQYNSFPLTFGGGTKLEIK
In the case of B1, the binding result in assay [1] was “binds”; in assay [2] it was “no binding (tested: 10 gg/mL (so in the source))”.

B2: antibody 335 (antibody, V domains shown)
VH: QVQLQQSDAALVKPGASVKISCKASGYTFTDHAIHWVKQRPEQGLEWIGYISPGNGDIKYNEKFKGKATLTADKSSSTAYMQLNSLTSEDSAVYFCKGPLLVRWRYYITMDYWGQGTTVTVSS
VL: DIVMTQSQKFMSTTVGDRVSITCKASQNVGAAVVWYQQKPGQSPKLLIYSASYRYTGVPDRFTGSGSGTDFTLTISNMQSEDVADYFCQQYNSFPLTFGGGTKLEIK
Turning to B2, the binding result in assay [1] is reported as “binds”; in assay [2], “no binding (tested: 10 gg/mL (so in the source))”.
